What is called stoichiometry N is a count of units in the complex or per binding partner.

The labels stand for the following.
B4: FANCL (enzyme, human, UniProt Q9NW38-1 1-375, looked up)
chain: MAVTEASLLRQCPLLLPQNRSKTVYEGFISAQGRDFHLRIVLPEDLQLKNARLLCSWQLRTILSGYHRIVQQRMQHSPDLMSFMMELKMLLEVALKNRQELYALPPPPQFYSSLIEEIGTLGWDKLVYADTCFSTIKLKAEDASGREHLITLKLKAKYPAESPDYFVDFPVPFCASWTPQSSLISIYSQFLAAIESLKAFWDVMDEIDEKTWVLEPEKPPRSATARRIALGNNVSINIEVDPRHPTMLPECFFLGADHVVKPLGIKLSRNIHLWDPENSVLQNLKDVLEIDFPARAILEKSDFTMDCGICYAYQLDGTIPDQVCDNSQCGQPFHQICLYEWLRGLLTSRQSFNIIFGECPYCSKPITLKMSGRKH

Common to all, as to experiment: cryo-EM structure
Data set [1] has as its target FA Core complex (human | human (endogenous in HEK-293F)) (UniProt O15360).
Data set [2] deals with T1, FANCI (human, UniProt Q9NVI1 1-1328).
T1 sequence: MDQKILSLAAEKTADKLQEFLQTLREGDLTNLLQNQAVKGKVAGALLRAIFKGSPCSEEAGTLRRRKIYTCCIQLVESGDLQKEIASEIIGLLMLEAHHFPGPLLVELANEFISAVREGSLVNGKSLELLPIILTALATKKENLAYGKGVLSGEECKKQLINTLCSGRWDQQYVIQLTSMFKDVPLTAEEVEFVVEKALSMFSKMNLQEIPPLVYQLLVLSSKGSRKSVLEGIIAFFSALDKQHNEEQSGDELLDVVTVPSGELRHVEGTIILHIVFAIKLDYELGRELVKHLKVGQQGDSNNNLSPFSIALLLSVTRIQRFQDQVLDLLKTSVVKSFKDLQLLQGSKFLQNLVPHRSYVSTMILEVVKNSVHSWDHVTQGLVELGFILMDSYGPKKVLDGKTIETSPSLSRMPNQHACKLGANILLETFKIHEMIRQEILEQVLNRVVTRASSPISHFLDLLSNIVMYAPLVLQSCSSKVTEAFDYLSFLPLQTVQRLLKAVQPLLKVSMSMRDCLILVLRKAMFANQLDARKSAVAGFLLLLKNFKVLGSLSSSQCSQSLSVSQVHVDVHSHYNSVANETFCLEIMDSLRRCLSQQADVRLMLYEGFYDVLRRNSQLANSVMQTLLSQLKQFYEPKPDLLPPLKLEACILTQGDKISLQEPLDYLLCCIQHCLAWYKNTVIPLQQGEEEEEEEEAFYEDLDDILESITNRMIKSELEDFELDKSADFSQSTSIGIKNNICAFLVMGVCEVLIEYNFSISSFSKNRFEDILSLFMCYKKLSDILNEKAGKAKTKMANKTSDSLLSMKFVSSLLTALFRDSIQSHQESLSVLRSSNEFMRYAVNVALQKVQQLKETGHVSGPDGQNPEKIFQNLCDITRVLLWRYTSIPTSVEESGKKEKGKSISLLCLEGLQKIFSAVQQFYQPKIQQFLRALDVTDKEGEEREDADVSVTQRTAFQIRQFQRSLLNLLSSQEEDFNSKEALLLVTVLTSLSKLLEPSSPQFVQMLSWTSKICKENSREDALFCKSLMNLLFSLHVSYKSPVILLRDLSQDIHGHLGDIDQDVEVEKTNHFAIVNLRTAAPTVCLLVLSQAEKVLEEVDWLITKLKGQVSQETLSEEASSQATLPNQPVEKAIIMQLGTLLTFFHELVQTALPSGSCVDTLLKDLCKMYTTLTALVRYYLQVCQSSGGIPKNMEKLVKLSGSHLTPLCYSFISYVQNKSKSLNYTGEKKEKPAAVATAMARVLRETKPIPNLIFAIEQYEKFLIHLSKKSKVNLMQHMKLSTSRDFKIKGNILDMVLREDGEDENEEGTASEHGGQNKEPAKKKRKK

Data set [3] addresses B4.
Data set [4] concerns the molecule itself.

On to “FANCI-FANCD2 (ID) complex (from UniProt Q9NVI1 1-1328; Q9BXW9 1-1451)”, for which the percent of Core particles with bound ID in data set [1] is 63%.

B1: UBE2T (enzyme, human)
chain: MQRASRLKRELHMLATEPPPGITCWQDKDQMDDLRAQILGGANTPYEKGVFKLEVIIPERYPFEPPQIRFLTPIYHPNIDSAGRICLDVLKLPPKGAWRPSLNIATVLTSIQLLMSEPNPDDPLMADISSEFKYNKPAFLKNARQWTEKHARQKQKADEEEMLDNLPEAGDSRVHNSTQKRKASQLVGIEKKFHPDV
With B1, the binding result in data set [2] and in data set [3] was “binds” each time.

B2: FANCB-FAAP100 heterodimer (complex, human)
chain 1: MTSKQAMSSNEQERLLCYNGEVLVFQLSKGNFADKEPTKTPILHVRRMVFDRGTKVFVQKSTGFFTIKEENSHLKIMCCNCVSDFRTGINLPYIVIEKNKKNNVFEYFLLILHSTNKFEMRLSFKLGYEMKDGLRVLNGPLILWRHVKAFFFISSQTGKVVSVSGNFSSIQWAGEIENLGMVLLGLKECCLSEEECTQEPSKSDYAIWNTKFCVYSLESQEVLSDIYIIPPAYSSVVTYVHICATEIIKNQLRISLIALTRKNQLISFQNGTPKNVCQLPFGDPCAVQLMDSGGGNLFFVVSFISNNACAVWKESFQVAAKWEKLSLVLIDDFIGSGTEQVLLLFKDSLNSDCLTSFKITDLGKINYSSEPSDCNEDDLFEDKQENRYLVVPPLETGLKVCFSSFRELRQHLLLKEKIISKSYKALINLVQGKDDNTSSAEEKECLVPLCGEEENSVHILDEKLSDNFQDSEQLVEKIWYRVIDDSLVVGVKTTSSLKLSLNDVTLSLLMDQAHDSRFRLLKCQNRVIKLSTNPFPAPYLMPCEIGLEAKRVTLTPDSKKEESFVCEHPSKKECVQIITAVTSLSPLLTFSKFCCTVLLQIMERESGNCPKDRYVVCGRVFLSLEDLSTGKYLLTFPKKKPIEHMEDLFALLAAFHKSCFQITSPGYALNSMKVWLLEHMKCEIIKEFPEVYFCERPGSFYGTLFTWKQRTPFEGILIIYSRNQTVMFQCLHNLIRILPINCFLKNLKSGSENFLIDNMAFTLEKELVTLSSLSSAIAKHESNFMQRCEVSKGKSSVVAAALSDRRENIHPYRKELQREKKKMLQTNLKVSGALYREITLKVAEVQLKSDFAAQKLSNL
chain 2: MAGAAPRVRYLAGFCCPLGGLAAGKPRVLCHEAEVFLSTGSELVYVYDQEGGLLTAAFRFPDQVWHLELLAPRRLLYALCARRGLYCLSLDHPGRSRSTSQDDRDSEDGDQPSPVIPVDPDACILPDAALCAFTLLDSVLVTLVQGPARWKMQLFEQPCPGEDPRPGGQIGEVELSSYTPPAGVPGKPAAPHFLPVLCSVSPSGSRVPHDLLGGSGGFTLEDALFGLLFGADATLLQSPVVLCGLPDGQLCCVILKALVTSRSAPGDPNALVKILHHLEEPVIFIGALKTEPQAAEAAENFLPDEDVHCDCLVAFGHHGRMLAIKASWDESGKLVPELREYCLPGPVLCAACGGGGRVYHSTPSDLCVVDLSRGSTPLGPEQPEEGPGGLPPMLCPASLNICSVVSLSASPRTHEGGTKLLALSAKGRLMTCSLDLDSEMPGPARMTTESAGQKIKELLSGIGNISERVSFLKKAVDQRNKALTSLNEAMNVSCALLSSGTGPRPISCTTSTTWSRLQTQDVLMATCVLENSSSFSLDQGWTLCIQVLTSSCALDLDSACSAITYTIPVDQLGPGARREVTLPLGPGENGGLDLPVTVSCTLFYSLREVVGGALAPSDSEDPFLDECPSDVLPEQEGVCLPLSRHTVDMLQCLRFPGLAPPHTRAPSPLGPTRDPVATFLETCREPGSQPAGPASLRAEYLPPSVASIKVSAELLRAALKDGHSGVPLCCATLQWLLAENAAVDVVRARALSSIQGVAPDGANVHLIVREVAMTDLCPAGPIQAVEIQVESSSLADICRAHHAVVGRMQTMVTEQATQGSSAPDLRVQYLRQIHANHETLLREVQTLRDRLCTEDEASSCATAQRLLQVYRQLRHPSLILL
For the molecule B2, in data set [4], the “stoichiometry N” value was found to be 2.

B3: FANCA (natural protein, human, UniProt O15360-1 1-1455, looked up)
chain: MSDSWVPNSASGQDPGGRRRAWAELLAGRVKREKYNPERAQKLKESAVRLLRSHQDLNALLLEVEGPLCKKLSLSKVIDCDSSEAYANHSSSFIGSALQDQASRLGVPVGILSAGMVASSVGQICTAPAETSHPVLLTVEQRKKLSSLLEFAQYLLAHSMFSRLSFCQELWKIQSSLLLEAVWHLHVQGIVSLQELLESHPDMHAVGSWLFRNLCCLCEQMEASCQHADVARAMLSDFVQMFVLRGFQKNSDLRRTVEPEKMPQVTVDVLQRMLIFALDALAAGVQEESSTHKIVRCWFGVFSGHTLGSVISTDPLKRFFSHTLTQILTHSPVLKASDAVQMQREWSFARTHPLLTSLYRRLFVMLSAEELVGHLQEVLETQEVHWQRVLSFVSALVVCFPEAQQLLEDWVARLMAQAFESCQLDSMVTAFLVVRQAALEGPSAFLSYADWFKASFGSTRGYHGCSKKALVFLFTFLSELVPFESPRYLQVHILHPPLVPGKYRSLLTDYISLAKTRLADLKVSIENMGLYEDLSSAGDITEPHSQALQDVEKAIMVFEHTGNIPVTVMEASIFRRPYYVSHFLPALLTPRVLPKVPDSRVAFIESLKRADKIPPSLYSTYCQACSAAEEKPEDAALGVRAEPNSAEEPLGQLTAALGELRASMTDPSQRDVISAQVAVISERLRAVLGHNEDDSSVEISKIQLSINTPRLEPREHMAVDLLLTSFCQNLMAASSVAPPERQGPWAALFVRTMCGRVLPAVLTRLCQLLRHQGPSLSAPHVLGLAALAVHLGESRSALPEVDVGPPAPGAGLPVPALFDSLLTCRTRDSLFFCLKFCTAAISYSLCKFSSQSRDTLCSCLSPGLIKKFQFLMFRLFSEARQPLSEEDVASLSWRPLHLPSADWQRAALSLWTHRTFREVLKEEDVHLTYQDWLHLELEIQPEADALSDTERQDFHQWAIHEHFLPESSASGGCDGDLQAACTILVNALMDFHQSSRSYDHSENSDLVFGGRTGNEDIISRLQEMVADLELQQDLIVPLGHTPSQEHFLFEIFRRRLQALTSGWSVAASLQRQRELLMYKRILLRLPSSVLCGSSFQAEQPITARCEQFFHLVNSEMRNFCSHGGALTQDITAHFFRGLLNACLRSRDPSLMVDFILAKCQTKCPLILTSALVWWPSLEPVLLCRWRRHCQSPLPRELQKLQEGRQFASDFLSPEAASPAPNPDWLSAAALHFAIQQVREENIRKQLKKLDCEREELLVFLFFFSLMGLLSSHLTSNSTTDLPKAFHVCAAILECLEKRKISWLALFQLTESDLRLGRLLLRVAPDQHTRLLPFAFYSLLSYFHEDAAIREEAFLHVAVDMYLKLVQLFVAGDTSTVSPPAGRSLELKGQGNPVELITKARLFLLQLIPRCPKKSFSHVAELLADRGDCDPEVSAALQSRQQAAPDADLSQEPHLF
Take B3: in data set [4], the “stoichiometry N” value came out at 2.

B4: the binding result in data set [2] is on record as “binds”.

The record behind these values is PMC8378520 (Nature structural & molecular biology, 2021).
